Data reported in PMC3976318.

Columns and labels:
[1] = target: HA-MC4R G34A (novel rare variant, 101G>C) (human) (UniProt P32245)
[2] = target: HA-MC4R (wild-type melanocortin 4 receptor, 3x HA tagged) (human) (UniProt P32245)

α-MSH EC50 for cAMP production (cAMP immunoassay dose-response, HEK cells stably expressing the receptor, three independent immunoassays) [1]: 43 nM
α-MSH EC50 for cAMP production (cAMP immunoassay dose-response, HEK cells stably expressing the receptor, three independent immunoassays) [2]: 41.1 nM
Substance: α-melanocyte stimulating hormone (peptide)
